Assay results from paper PMC5612032.

Target: Amyloid-β peptide Aβ(1-42)
Assay: NMR titration; 5 μM soluble pEAβ(3-42), 5% Aβ(1-42) fibrils added directly; decrease of the NMR signal of soluble pEAβ(3-42) within ca. 10 min; 10 mM sodium phosphate pH 7.4, 37 °C

decrease in NMR signal intensity of soluble pEAβ(3-42): 50%
stoichiometry N (pEAβ(3-42) : Aβ(1-42) in fibrils): 10
Substance: Pyroglutamate-modified amyloid-β pEAβ(3-42) (peptide)
